{"source": "paper PMC6826516", "key": {"[1]": {"target": "T1, LgBiT-TEAD1-Myc (TEAD1 aa 194-411), mutant, P28347-1", "T1 chain": "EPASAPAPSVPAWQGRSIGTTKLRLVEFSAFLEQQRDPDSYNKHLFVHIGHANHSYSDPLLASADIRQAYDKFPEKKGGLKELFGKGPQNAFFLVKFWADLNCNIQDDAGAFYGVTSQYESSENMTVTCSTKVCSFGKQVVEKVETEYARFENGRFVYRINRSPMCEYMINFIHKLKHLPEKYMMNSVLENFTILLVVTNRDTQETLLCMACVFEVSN", "assay": "NanoBiT assay (split-luciferase biosensor) in lysates of transfected HEK293T cells", "details": "chain shown with the change; 48 h after transfection; equal amounts of each biosensor plasmid; parent: est. 1300; read off a plot"}, "[2]": {"target": "T2, LgBiT-TEAD-His fusion protein (TEAD1 aa 194-411), mutant, P28347-1", "T2 chain": "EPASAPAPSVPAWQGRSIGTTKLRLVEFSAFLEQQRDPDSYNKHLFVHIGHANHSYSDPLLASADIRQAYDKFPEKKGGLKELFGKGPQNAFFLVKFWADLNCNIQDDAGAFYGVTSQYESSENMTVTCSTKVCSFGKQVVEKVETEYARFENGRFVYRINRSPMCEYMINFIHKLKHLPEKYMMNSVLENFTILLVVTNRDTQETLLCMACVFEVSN", "assay": "NanoBiT assay (split-luciferase biosensor) with purified His-tagged fusion proteins in vitro", "details": "chain shown with the change; 100 ng of each construct; mixed and incubated for 5 min before substrate; parent: est. 59; read off a plot"}}}
{"binder": "m5; m2 TAZ:W43A; TAZ:K46A; TAZ:L48A; TAZ:S51A; TAZ:F52A; TAZ:F53A; TEAD1:E255A; TEAD1:V257A; TEAD1:I262A (protein) PGQQVIHVTQDLDTDLEALFNSVMNPKPSSARKAIAPEAAAKEPDSGSHSRQSSTDSSGGHPGPRLAGGAQHVRSHSSPASLQLGTGAGAAGSPAQQHAHLRQQSYD", "values": [{"measurement": "response (fold over LgBiT-TEAD1 alone)", "setting": "[1]", "value": 19}]}
{"binder": "m17; m14 TAZ:W43A; TAZ:K46A; TAZ:L48A; TAZ:S51A; TAZ:F52A; TAZ:F53A; TEAD1:E255A; TEAD1:V257A; TEAD1:I262A (protein) PGQQVIHVTQDLDTDLEALFNSVMNPKPSSARKAIAPEAAAKEPDSGSHSRQSSTDSSGGHPGPRLAGGAQHVRSHSSPASLQLGTGAGAAGSPAQQHAHLRQQSYD", "values": [{"measurement": "response (fold over LgBiT-TEAD1 alone)", "setting": "[2]", "value": 12}]}
